In publication PMC7038937:

Experiments:
Experiment in all cases: fluorescence anisotropy
[1] = biological target: STAU1 dsRBD3/4 (Homo sapiens, UniProt O95793-2 102-274)
[2] = biological target: dsRBD3 F109A (Homo sapiens, UniProt O95793-2 102-181, F109A)
[3] = biological target: dsRBD3/4 R209A (Homo sapiens, UniProt O95793-2 102-274, R209A)
[4] = biological target: dsRBD4 Q212A Q215A (Homo sapiens, UniProt O95793-2 205-274, Q212A;Q215A)
[5] = biological target: STAU1 dsRBD3 (Homo sapiens, UniProt O95793-2 102-181)
Sequence of STAU1 dsRBD3 (O95793 183-262): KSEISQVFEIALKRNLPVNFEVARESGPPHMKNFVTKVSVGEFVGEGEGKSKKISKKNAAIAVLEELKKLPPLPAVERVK

[6] = biological target: dsRBD3/4 S208A (Homo sapiens, UniProt O95793-2 102-274, S208A)
Sequence of dsRBD3/4 S208A (O95793 183-355 S289A): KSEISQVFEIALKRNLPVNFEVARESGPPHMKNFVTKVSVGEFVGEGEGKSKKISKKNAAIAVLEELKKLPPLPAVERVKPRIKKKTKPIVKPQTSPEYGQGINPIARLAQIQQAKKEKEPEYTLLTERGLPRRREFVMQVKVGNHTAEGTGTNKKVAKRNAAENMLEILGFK

[7] = biological target: dsRBD3/4 F109A (Homo sapiens, UniProt O95793-2 102-274, F109A)
Sequence of dsRBD3/4 F109A (O95793 183-355 F190A): as the sequence (O95793 183-355 S289A) above, with F8A, A107S counted along it

[8] = biological target: dsRBD4 S208A Q212A Q215A (Homo sapiens, UniProt O95793-2 205-274, S208A;Q212A;Q215A)
Sequence of dsRBD4 S208A Q212A Q215A (O95793 286-355 S289A/Q293A/Q296A): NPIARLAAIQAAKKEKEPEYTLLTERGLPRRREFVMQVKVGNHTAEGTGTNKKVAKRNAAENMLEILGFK

[9] = biological target: dsRBD3/4 I105A S106A (Homo sapiens, UniProt O95793-2 102-274, I105A;S106A)
Sequence of dsRBD3/4 I105A S106A (O95793 183-355 I186A/S187A): as the sequence (O95793 183-355 S289A) above, with I4A, S5A, A107S counted along it

[10] = biological target: dsRBD3/4 R234A R236A (Homo sapiens, UniProt O95793-2 102-274, R234A;R236A)
Sequence of dsRBD3/4 R234A R236A (O95793 183-355 R315A/R317A): as the sequence (O95793 183-355 S289A) above, with A107S, R133A, R135A counted along it

[11] = biological target: dsRBD3 E110A L113A (Homo sapiens, UniProt O95793-2 102-181, E110A;L113A)
Sequence of dsRBD3 E110A L113A (O95793 183-262 E191A/L194A): as the sequence (O95793 183-262) above, with E9A, L12A counted along it

[12] = biological target: dsRBD3/4 S208A Q212A Q215A (Homo sapiens, UniProt O95793-2 102-274, S208A;Q212A;Q215A)
Sequence of dsRBD3/4 S208A Q212A Q215A (O95793 183-355 S289A/Q293A/Q296A): as the sequence (O95793 183-355 S289A) above, with Q111A, Q114A counted along it

[13] = biological target: dsRBD3/4 K133A (Homo sapiens, UniProt O95793-2 102-274, K133A)
Sequence of dsRBD3/4 K133A (O95793 183-355 K214A): as the sequence (O95793 183-355 S289A) above, with K32A, A107S counted along it

[14] = biological target: dsRBD3/4 Q212A Q215A (Homo sapiens, UniProt O95793-2 102-274, Q212A;Q215A)
Sequence of dsRBD3/4 Q212A Q215A (O95793 183-355 Q293A/Q296A): as the sequence (O95793 183-355 S289A) above, with A107S, Q111A, Q114A counted along it

[15] = biological target: dsRBD3/4 I105A S106A S208A Q212A Q215A (Homo sapiens, UniProt O95793-2 102-274, I105A;S106A;S208A;Q212A;Q215A)
Sequence of dsRBD3/4 I105A S106A S208A Q212A Q215A (O95793 183-355 I186A/S187A/S289A/Q293A/Q296A): as the sequence (O95793 183-355 S289A) above, with I4A, S5A, Q111A, Q114A counted along it

[16] = biological target: STAU1 dsRBD4 (Homo sapiens, UniProt O95793-2 205-274)
Sequence of STAU1 dsRBD4 (O95793 286-355): as the sequence (O95793 286-355 S289A/Q293A/Q296A) above, with A4S, A8Q, A11Q counted along it

[17] = biological target: dsRBD3/4 I105A S106A E110A L113A (Homo sapiens, UniProt O95793-2 102-274, I105A;S106A;E110A;L113A)
Sequence of dsRBD3/4 I105A S106A E110A L113A (O95793 183-355 I186A/S187A/E191A/L194A): as the sequence (O95793 183-355 S289A) above, with I4A, S5A, E9A, L12A, A107S counted along it

[18] = biological target: dsRBD3/4 F109A R209A (Homo sapiens, UniProt O95793-2 102-274, F109A;R209A)
Sequence of dsRBD3/4 F109A R209A (O95793 183-355 F190A/R290A): as the sequence (O95793 183-355 S289A) above, with F8A, A107S, R108A counted along it

[19] = biological target: dsRBD3/4 E110A L113A (Homo sapiens, UniProt O95793-2 102-274, E110A;L113A)
Sequence of dsRBD3/4 E110A L113A (O95793 183-355 E191A/L194A): as the sequence (O95793 183-355 S289A) above, with E9A, L12A, A107S counted along it

[20] = biological target: dsRBD3 I105A S106A (Homo sapiens, UniProt O95793-2 102-181, I105A;S106A)
Sequence of dsRBD3 I105A S106A (O95793 183-262 I186A/S187A): as the sequence (O95793 183-262) above, with I4A, S5A counted along it

[21] = biological target: dsRBD3/4 E110A L113A Q212A Q215A (Homo sapiens, UniProt O95793-2 102-274, E110A;L113A;Q212A;Q215A)
Sequence of dsRBD3/4 E110A L113A Q212A Q215A (O95793 183-355 E191A/L194A/Q293A/Q296A): as the sequence (O95793 183-355 S289A) above, with E9A, L12A, A107S, Q111A, Q114A counted along it

Sequence of STAU1 dsRBD3/4 (O95793 183-355): as the sequence (O95793 183-355 S289A) above, with A107S counted along it
Sequence of dsRBD3/4 R209A (O95793 183-355 R290A): as the sequence (O95793 183-355 S289A) above, with A107S, R108A counted along it
Sequence of dsRBD4 Q212A Q215A (O95793 286-355 Q293A/Q296A): as the sequence (O95793 286-355 S289A/Q293A/Q296A) above, with A4S counted along it
Sequence of dsRBD3 F109A (O95793 183-262 F190A): as the sequence (O95793 183-262) above, with F8A counted along it

Q: GGCGAGUGCCAGAAGCUGUCUCCUUCGGGAGGCAGUUUCUGGUACUCGCC (structured_RNA) [long ARF1 SBS (19 bp, UUCG loop)] was tested. Which Kd [1] did it give?
A: 26.5 ± 2.9 nM

Q: How did the Kd [1] turn out when GGAGUGCCAGAAGCUACGGUUUCUGGUACUCC (structured_RNA) [bottom 2/3 ARF1 SBS] was run?
A: 31 ± 0.1 nM

Q: Which results are given for GGCAGAAGCUGCCUCUUCGGAGGCAGUUUCUGCC (structured_RNA) [top 2/3 ARF1 SBS (sARF1 SBS)]?
A: Kd [1]: 17.8 ± 4.3 nM; Kd [2]: 98.2 ± 8.7 nM; Kd [3]: 17.7 ± 4.1 nM; Kd [4]: 121 ± 15 nM; Kd [5]: 41.4 ± 1.5 nM; Kd [6]: 28 ± 4.4 nM; Kd [7]: 29.7 ± 5.8 nM; Kd [8]: 390 ± 38.4 nM; Kd [9]: 28.8 ± 2.7 nM; Kd [10]: 26 ± 9.1 nM; Kd [11]: 31.5 ± 1.7 nM; Kd [12]: 87.2 ± 3 nM; Kd [13]: 23.2 ± 9.7 nM; Kd [14]: 15.3 ± 0.7 nM; Kd [15]: 43.7 ± 5.2 nM; Kd [16]: 74.8 ± 17.6 nM; Kd [17]: 21.8 ± 6.4 nM; Kd [18]: 27.7 ± 5.5 nM; Kd [19]: 18.5 ± 4.3 nM; Kd [20]: 147 ± 35.6 nM; Kd [21]: 18.5 ± 1.1 nM
